Results: article PMC12501226

Legend:
Experiment in all cases: SEC
[1] = target: T5A (collagen XVIII trimerization domain, 5-residue G/S linker, ACE2 18-615) (human) (UniProt P39060)
[2] = target: T18A (collagen XVIII trimerization domain, 18-residue G/S linker, ACE2 18-615) (human) (UniProt P39060)
[3] = target: T3A (collagen XVIII trimerization domain, 3-residue G/S linker, ACE2 18-615) (human) (UniProt P39060)
[4] = target: T1A (collagen XVIII trimerization domain, 1-residue G/S linker, ACE2 18-615) (human) (UniProt P39060)

Substance: T5A (collagen XVIII trimerization domain, 5-residue G/S linker, ACE2 18-615) (from UniProt P39060;Q9BYF1)
- stoichiometry N [1]: 3

Substance: T18A (collagen XVIII trimerization domain, 18-residue G/S linker, ACE2 18-615) (from UniProt P39060;Q9BYF1)
- stoichiometry N [2]: 3

Substance: T3A (collagen XVIII trimerization domain, 3-residue G/S linker, ACE2 18-615) (from UniProt P39060;Q9BYF1)
- stoichiometry N [3]: 3

Substance: T1A (collagen XVIII trimerization domain, 1-residue G/S linker, ACE2 18-615) (from UniProt P39060;Q9BYF1)
- stoichiometry N [4]: 3
